Test results taken from patent US20100297131A1.

Legend:
[1] = molecular target: human erythrocytes, untreated (uncharacterized neuraminidase sensitive, trypsin resistant receptor on the surface of the erythrocyte) (human); experiment: erythrocyte rosetting on transfected COS7 cells, normalized to 5% transfection efficiency
[2] = molecular target: neuraminidase-treated human erythrocytes (human); experiment: erythrocyte rosetting on transfected COS7 cells, erythrocytes pretreated with neuraminidase

| Substance | binding activity (%) [1] [%] | fold reduction of binding against untreated erythrocytes [2] [fold] |
| --- | --- | --- |
| PfRH1 region II (RII) expressed on the surface of COS7 cells as a GFP fusion protein (from UniProt P86148 334-1000) | > 70 | 10 |
| PfRH1 region III (RIII) expressed on the surface of COS7 cells as a GFP fusion protein | < 10 |  |
| PfRH1 region IV (RIV) expressed on the surface of COS7 cells as a GFP fusion protein | < 10 |  |
| PfRH1 region VI (RVI) expressed on the surface of COS7 cells as a GFP fusion protein | < 10 |  |
